For 19 molecules, normalised SPOT signal, Boehringer light units (BLU); mean over the file's lines of this peptide results are on record in PMC314469, “Protein Interaction Networks by Proteome Peptide Scanning” (PLoS Biology, 2004).

First the molecules themselves.
B1: YHR150W 496-509 (peptide)
chain: IFDPQDPYRRAQQF
B2: YCR065W 64-77 (peptide)
chain: HSSPIAPSKAKRQR
B3: YNL163C 746-759 (peptide)
chain: HSEPAIPYRETFLS
B4: YGR165W 32-45 (peptide)
chain: IAYPFYPFKKLGRQ
B5: YOR371C 699-712 (peptide)
chain: HTPPLNPSKKSASI
B6: YBR038W 84-97 (peptide)
chain: HNSPVAPNRYAANL
B7: YOR042W 147-160 (peptide)
chain: IELPTQPVRKNPEA
B8: YBR276C 631-644 (peptide)
chain: IAHPVRPHRAITMT
B9: YOR301W 109-122 (peptide)
chain: HLDPEAPDKLLENS
B10: YIL150C 61-74 (peptide)
chain: IEVPQSPTKNRVKV
B11: YMR136W 114-127 (peptide)
chain: HQIPSAPQRLVSII
B12: YAR008W 207-220 (peptide)
chain: IAYPGDPLRFHSHL
B13: YDR037W 377-390 (peptide)
chain: HPDPADPAKELELN
B14: YOR329C 664-677 (peptide)
chain: HLPPPPPPRAQQQQ
B15: YLR259C 61-74 (peptide)
chain: IEQPFGPPKITKDG
B16: YGL025C 241-254 (peptide)
chain: IAAPKKPRKPRQTK
B17: YNL091W 543-556 (peptide)
chain: IELPHDPHKHFHRD
B18: YGL003C 171-184 (peptide)
chain: HSTPVTPRRLFTSQ
B19: YMR280C 1394-1407 (peptide)
chain: HRGPRRPQKNRYNT

In one assay the target is T1, Boi2 SH3 (BOI2_YEAST), P39969.
T1 chain: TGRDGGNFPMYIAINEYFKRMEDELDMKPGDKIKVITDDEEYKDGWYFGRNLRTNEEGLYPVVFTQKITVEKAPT
Description: SPOT array.
With B1, the normalised SPOT signal, Boehringer light units (BLU); mean over the file's lines of this peptide turned out to be 51.8.

Molecule B2 registered a normalised SPOT signal, Boehringer light units (BLU); mean over the file's lines of this peptide of 170.

Molecule B3 came in with a normalised SPOT signal, Boehringer light units (BLU); mean over the file's lines of this peptide of 14.6.

As for B4, the normalised SPOT signal, Boehringer light units (BLU); mean over the file's lines of this peptide came out at 32.7.

B5 yielded a normalised SPOT signal, Boehringer light units (BLU); mean over the file's lines of this peptide of 82.2.

With B6, the normalised SPOT signal, Boehringer light units (BLU); mean over the file's lines of this peptide is 33.8.

Consider B7, for which the normalised SPOT signal, Boehringer light units (BLU); mean over the file's lines of this peptide worked out at 20.1.

For the molecule B8, the normalised SPOT signal, Boehringer light units (BLU); mean over the file's lines of this peptide is 145.

B9 came in with a normalised SPOT signal, Boehringer light units (BLU); mean over the file's lines of this peptide of 62.5.

With B10, the normalised SPOT signal, Boehringer light units (BLU); mean over the file's lines of this peptide is 19.2.

Consider B11, for which the normalised SPOT signal, Boehringer light units (BLU); mean over the file's lines of this peptide turned out to be 18.8.

The molecule B12 gave a normalised SPOT signal, Boehringer light units (BLU); mean over the file's lines of this peptide of 143.

B13 returned a normalised SPOT signal, Boehringer light units (BLU); mean over the file's lines of this peptide of 12.4.

As for B14, the normalised SPOT signal, Boehringer light units (BLU); mean over the file's lines of this peptide is 15.5.

In the case of B15, the normalised SPOT signal, Boehringer light units (BLU); mean over the file's lines of this peptide was 26.4.

B16 returned a normalised SPOT signal, Boehringer light units (BLU); mean over the file's lines of this peptide of 53.7.

In turn, B17 displayed a normalised SPOT signal, Boehringer light units (BLU); mean over the file's lines of this peptide of 23.2.

As for B18, the normalised SPOT signal, Boehringer light units (BLU); mean over the file's lines of this peptide came to 77.8.

B19 registered a normalised SPOT signal, Boehringer light units (BLU); mean over the file's lines of this peptide of 61.

The next assay has as its target T2, Yfr024 SH3 (LSB3_YEAST), P43603.
T2 chain: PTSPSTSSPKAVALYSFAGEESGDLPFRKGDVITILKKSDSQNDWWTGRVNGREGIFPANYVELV
The assay can be described thus: SPOT array.
Turning to B1, the normalised SPOT signal, Boehringer light units (BLU); mean over the file's lines of this peptide is 59.9.

Turning to B2, the normalised SPOT signal, Boehringer light units (BLU); mean over the file's lines of this peptide came to 1350.

As to B3, the normalised SPOT signal, Boehringer light units (BLU); mean over the file's lines of this peptide was determined as 92.9.

With B4, the normalised SPOT signal, Boehringer light units (BLU); mean over the file's lines of this peptide is 813.

The molecule B5 registered a normalised SPOT signal, Boehringer light units (BLU); mean over the file's lines of this peptide of 15.3.

As for B6, the normalised SPOT signal, Boehringer light units (BLU); mean over the file's lines of this peptide was found to be 155.

B7: the normalised SPOT signal, Boehringer light units (BLU); mean over the file's lines of this peptide was determined as 550.

B8: the normalised SPOT signal, Boehringer light units (BLU); mean over the file's lines of this peptide came to 2660.

B9 had a normalised SPOT signal, Boehringer light units (BLU); mean over the file's lines of this peptide of 35.4.

The molecule B10 returned a normalised SPOT signal, Boehringer light units (BLU); mean over the file's lines of this peptide of 176.

In the case of B11, the normalised SPOT signal, Boehringer light units (BLU); mean over the file's lines of this peptide was found to be 572.

B12 yielded a normalised SPOT signal, Boehringer light units (BLU); mean over the file's lines of this peptide of 93.2.

The molecule B13 yielded a normalised SPOT signal, Boehringer light units (BLU); mean over the file's lines of this peptide of -0.

Molecule B14 returned a normalised SPOT signal, Boehringer light units (BLU); mean over the file's lines of this peptide of 6510.

As for B15, the normalised SPOT signal, Boehringer light units (BLU); mean over the file's lines of this peptide worked out at 149.

For B16, the normalised SPOT signal, Boehringer light units (BLU); mean over the file's lines of this peptide came to 3170.

As for B17, the normalised SPOT signal, Boehringer light units (BLU); mean over the file's lines of this peptide is 0.

B18: the normalised SPOT signal, Boehringer light units (BLU); mean over the file's lines of this peptide was found to be 16700.

In turn, B19 came in with a normalised SPOT signal, Boehringer light units (BLU); mean over the file's lines of this peptide of 1710.

Another assay concerns the target T3, Boi1 SH3 (BOI1_YEAST), P38041.
T3 chain: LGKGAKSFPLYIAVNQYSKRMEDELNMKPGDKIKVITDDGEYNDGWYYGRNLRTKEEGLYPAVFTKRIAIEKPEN
Description: SPOT array.
Take B1: the normalised SPOT signal, Boehringer light units (BLU); mean over the file's lines of this peptide was found to be 53.2.

B2 displayed a normalised SPOT signal, Boehringer light units (BLU); mean over the file's lines of this peptide of 673.

For B3, the normalised SPOT signal, Boehringer light units (BLU); mean over the file's lines of this peptide came out at 83.3.

B4 returned a normalised SPOT signal, Boehringer light units (BLU); mean over the file's lines of this peptide of 75.8.

As for B5, the normalised SPOT signal, Boehringer light units (BLU); mean over the file's lines of this peptide turned out to be 107.

The molecule B6 showed a normalised SPOT signal, Boehringer light units (BLU); mean over the file's lines of this peptide of 157.

B7 gave a normalised SPOT signal, Boehringer light units (BLU); mean over the file's lines of this peptide of 41.7.

Turning to B8, the normalised SPOT signal, Boehringer light units (BLU); mean over the file's lines of this peptide was 3310.

Take B9: the normalised SPOT signal, Boehringer light units (BLU); mean over the file's lines of this peptide worked out at 161.

In the case of B10, the normalised SPOT signal, Boehringer light units (BLU); mean over the file's lines of this peptide came out at 130.

Molecule B11 returned a normalised SPOT signal, Boehringer light units (BLU); mean over the file's lines of this peptide of 86.7.

For B12, the normalised SPOT signal, Boehringer light units (BLU); mean over the file's lines of this peptide amounted to 12.

For the molecule B13, the normalised SPOT signal, Boehringer light units (BLU); mean over the file's lines of this peptide stood at 72.

Consider B14, for which the normalised SPOT signal, Boehringer light units (BLU); mean over the file's lines of this peptide worked out at 61.

For the molecule B15, the normalised SPOT signal, Boehringer light units (BLU); mean over the file's lines of this peptide turned out to be 119.

B16: the normalised SPOT signal, Boehringer light units (BLU); mean over the file's lines of this peptide came out at 49.7.

Take B17: the normalised SPOT signal, Boehringer light units (BLU); mean over the file's lines of this peptide was 126.

B18 showed a normalised SPOT signal, Boehringer light units (BLU); mean over the file's lines of this peptide of 2290.

With B19, the normalised SPOT signal, Boehringer light units (BLU); mean over the file's lines of this peptide was found to be 9.8.

Another assay has as its target T4, Rvs167 SH3 (RV167_YEAST), P39743.
T4 chain: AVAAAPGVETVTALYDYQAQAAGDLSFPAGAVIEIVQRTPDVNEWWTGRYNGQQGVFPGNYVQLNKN
Description: SPOT array.
B1 returned a normalised SPOT signal, Boehringer light units (BLU); mean over the file's lines of this peptide of 52.4.

B2 had a normalised SPOT signal, Boehringer light units (BLU); mean over the file's lines of this peptide of 561.

Consider B3, for which the normalised SPOT signal, Boehringer light units (BLU); mean over the file's lines of this peptide is 35.1.

As for B4, the normalised SPOT signal, Boehringer light units (BLU); mean over the file's lines of this peptide was 16.3.

Molecule B5 displayed a normalised SPOT signal, Boehringer light units (BLU); mean over the file's lines of this peptide of 28.1.

As to B6, the normalised SPOT signal, Boehringer light units (BLU); mean over the file's lines of this peptide is 87.3.

For the molecule B7, the normalised SPOT signal, Boehringer light units (BLU); mean over the file's lines of this peptide is 47.

Turning to B8, the normalised SPOT signal, Boehringer light units (BLU); mean over the file's lines of this peptide amounted to 86.7.

In turn, B9 gave a normalised SPOT signal, Boehringer light units (BLU); mean over the file's lines of this peptide of 29.1.

B10 gave a normalised SPOT signal, Boehringer light units (BLU); mean over the file's lines of this peptide of 27.2.

B11 had a normalised SPOT signal, Boehringer light units (BLU); mean over the file's lines of this peptide of 16.

Regarding B12, the normalised SPOT signal, Boehringer light units (BLU); mean over the file's lines of this peptide stood at 18.3.

B13 registered a normalised SPOT signal, Boehringer light units (BLU); mean over the file's lines of this peptide of 50.

In turn, B14 gave a normalised SPOT signal, Boehringer light units (BLU); mean over the file's lines of this peptide of 1900.

With B15, the normalised SPOT signal, Boehringer light units (BLU); mean over the file's lines of this peptide came out at 28.2.

As to B16, the normalised SPOT signal, Boehringer light units (BLU); mean over the file's lines of this peptide is 95.9.

The molecule B17 came in with a normalised SPOT signal, Boehringer light units (BLU); mean over the file's lines of this peptide of 20.5.

Turning to B18, the normalised SPOT signal, Boehringer light units (BLU); mean over the file's lines of this peptide is 282.

As to B19, the normalised SPOT signal, Boehringer light units (BLU); mean over the file's lines of this peptide worked out at 60.7.

The target of another assay is T5, Yhr016c SH3 (YSC84_YEAST), P32793.
T5 chain: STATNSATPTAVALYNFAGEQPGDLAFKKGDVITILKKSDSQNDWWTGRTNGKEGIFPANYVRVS
Description: SPOT array.
B1 gave a normalised SPOT signal, Boehringer light units (BLU); mean over the file's lines of this peptide of 316.

Molecule B2 gave a normalised SPOT signal, Boehringer light units (BLU); mean over the file's lines of this peptide of 142.

B3 had a normalised SPOT signal, Boehringer light units (BLU); mean over the file's lines of this peptide of 634.

B4 had a normalised SPOT signal, Boehringer light units (BLU); mean over the file's lines of this peptide of 230.

As to B5, the normalised SPOT signal, Boehringer light units (BLU); mean over the file's lines of this peptide came to 90.5.

Consider B6, for which the normalised SPOT signal, Boehringer light units (BLU); mean over the file's lines of this peptide is 244.

In turn, B7 gave a normalised SPOT signal, Boehringer light units (BLU); mean over the file's lines of this peptide of 112.

Molecule B8 displayed a normalised SPOT signal, Boehringer light units (BLU); mean over the file's lines of this peptide of 225.

In the case of B9, the normalised SPOT signal, Boehringer light units (BLU); mean over the file's lines of this peptide came out at 329.

Molecule B10 showed a normalised SPOT signal, Boehringer light units (BLU); mean over the file's lines of this peptide of 201.

In the case of B11, the normalised SPOT signal, Boehringer light units (BLU); mean over the file's lines of this peptide was found to be 216.

With B12, the normalised SPOT signal, Boehringer light units (BLU); mean over the file's lines of this peptide was 196.

As to B13, the normalised SPOT signal, Boehringer light units (BLU); mean over the file's lines of this peptide is 161.

In the case of B14, the normalised SPOT signal, Boehringer light units (BLU); mean over the file's lines of this peptide was 1630.

In turn, B15 showed a normalised SPOT signal, Boehringer light units (BLU); mean over the file's lines of this peptide of 51.4.

B16 displayed a normalised SPOT signal, Boehringer light units (BLU); mean over the file's lines of this peptide of 126.

In turn, B17 came in with a normalised SPOT signal, Boehringer light units (BLU); mean over the file's lines of this peptide of 77.2.

The molecule B18 yielded a normalised SPOT signal, Boehringer light units (BLU); mean over the file's lines of this peptide of 6510.

Regarding B19, the normalised SPOT signal, Boehringer light units (BLU); mean over the file's lines of this peptide was determined as 161.
